Results on 7 molecules are retold here after patent US20160139118A1, “NOVEL ASSAY” (GLAXOSMITHKLINE INTELLECTUAL PROPERTY (NO.2) LIMITED, priority 2013, published 2016).

Data set [1] concerns the target Complement C3b (Complement Technology) (human) (UniProt P01024). Kind of data set: cell-based or functional assay.
In data set [2] the target is Complement C3b (Complement Technology), P01024.
Data set [3] addresses T1, C3b (Homo sapiens, UniProt P01024).
T1 construct: Factor I, Factor H, C3b, and iC3b proteins were purchased; purchased Complement Technology Inc (Tyler, Tex.)
Put plainly: Cofactor assay of bioactivity of purified and recombinant CFI. The class given is biochemical. The following applies: for estimated EC50 of CFI (95% limits in parentheses): three experiments in triplicate, CFH and C3b, 37° C. 1 hr. As to the method:
The bioactivity measurements were conducted in triplicate and run on three occasions. Both CFI stock solutions were diluted in a 1/3 log series into 8 substock solutions starting at […] CFI. To maintain the CFI bioactivity in low concentration, 10 μg/mL CFH was used. Cofactor assays were set up by mixing […] of 2×CFI substock solutions with […] of CFH and C3b 2× mixture at a final concentration of […] for each reaction. The reaction mixtures were incubated at 37° C. for 1 hr, then the iC3b production in reactions was evaluated by a specific ELISA.
In the assay, 1 mU of CFI bioactivity is defined as the inverse of the amount of CFI that generates half of the maximal concentration of iC3b that can be produced (EC50). To obtain CFI bioactivity of a sample the following calculation is applied: 1/(EC50 of CFI in μg). This equation will result in CFI bioactivity levels expressed as U/μg of CFI. […] The model fitted to the data also predicted the EC50 recombinant to purified ratio.
This value provides the amount of CFI in ng that generates ½ the maximal amount of iC3b. Dividing these amounts by 1000 we convert the numbers to μg.

The target of data set [4] is T1, C3b. Kind of data set: CFI dose response in cofactor assay (conversion of C3b into iC3b). Format: biochemical. On the procedure: A mixture of CFH (10-80 μg/mL) and C3b (80-150 μg/mL) was added into the tubes containing the CFI or BAM/CFI mixture. After a 30 minute-incubation at 37° C., the reaction mixtures were directly diluted into Assay Buffer and used for ELISA detection of iC3b. The detailed procedures other than indicated below were performed following the instruction provided with the ELISA kit. The diluted reaction mixtures and standards were applied to the 8-well strips at 60 μL per well and incubated at RT for 30 min. After washing 5 times in a plate washer with an in house-made washing buffer (10 mM Tris, 60 mM NaCl, 0.1% Tween 20, pH7.2), the 8-well strips were loaded with 50 μL of the HRP-anti-human iC3b conjugates per well and incubated at RT for 30 min. At the end of incubation, the 8-well strips were washed in the plate washer 5 times and incubated with 100 μL of the HRP substrates provided in the kit for additional 30 min. The reaction was stopped by addition of 50 μL Stop Buffer. The absorption at 405 nm was measured within 10 minutes. […] To answer these questions, a CFI dose response study was conducted where CFI was tested in a range of 10 ng/mL to 30 μg/mL in the presence or absence of 200 μM BAM1-42 (Lot 2, aged for 7 days without sonication) in the cofactor assay. […]

For “Recombinant complement factor I (GSK) (from UniProt P05156 19-583) (enzyme)”, in data set [1], the CFI bioactivity (inverse of EC50 in µg) is 1640 U/µg of CFI; the EC50 of CFI in cofactor assay (iC3b generation, 80 CFH and C3b, 1 hr), three experiments came out at 60.8 ng/mL; the EC50 recombinant to purified ratio stood at 1.8.
Take “Complement factor I, purified human serum protein (Complement Technology) (from UniProt P05156 19-583) (enzyme)”: in data set [1], the CFI bioactivity (inverse of EC50 in µg) was 3070 U/µg of CFI; the EC50 of CFI in cofactor assay (conversion of C3b into iC3b, with CFH), PBS control came out at 686 ng/mL; the EC50 of CFI in cofactor assay (iC3b generation, 80 CFH and C3b, 1 hr), three experiments is 32.6 ng/mL.

B1: Mouse plasma complement factor I (protein)
chain: RSPSASDLPQEELVDQKCLLQKYTHRSCNKVFCQPWQRCIEGTCICKLPYQCPRAGTPVCAMNGRSYPTYCHQKSFECLHPEIKFSHNGTCAAEGKFNVSLIYGRTKTEGLVQVKLVDQDERMFICKNSWSMAEANVACVDLGFPLGVRDIQGSFNISGNLHINDTECLHVHCRGVETSLAECAFTKRRTELSNGLAGVVCYKQDADFPTSLSFQCVNGKHIPQEKACNGVNDCGDQSDELCCKGCRGNASLCKSGVCIPDQYKCNGEVDCITGEDESRCEEDRQQNIPKGLARSAQGEAEIETEETEMLTPGMDNERKRIKSLLPKLSCGVKRNTHTRRKRVIGGKPANVGDYPWQVAIKDGQRITCGGIYIGGCWILTAAHCVRPSRAHSYQVWTALLDWLKPNSQLGIQTVKRVIVHEKYNGATFQNDIALIEMKMHTGKKECELPNSVPACVPWSPYLFQPNDRCIISGWGRGKDNQKVYSLRWGEVDLIGNCSQFYPDRYYEKEMQCAGTRDGSIDACKGDSGGPLVCEDINNVTYVWGIVSWGENCGKPEFPGVYTRVANYFDWISYHVGRSLVSQHNV
With B1, in data set [2], the “cofactor assay with mouse plasma as source of CFI, human CFH and C3b” value is listed as “mouse plasma CFI indeed can convert human C3b into iC3b in the presence of human CFH albeit with 10-times less activity”.

B2: Complement factor I, purified human serum protein (Complement Technology) (protein)
chain: KVTYTSQEDLVEKKCLAKKYTHLSCDKVFCQPWQRCIEGTCVCKLPYQCPKNGTAVCATNRRSFPTYCQQKSLECLHPGTKFLNNGTCTAEGKFSVSLKHGNTDSEGIVEVKLVDQDKTMFICKSSWSMREANVACLDLGFQQGADTQRRFKLSDLSINSTECLHVHCRGLETSLAECTFTKRRTMGYQDFADVVCYTQKADSPMDDFFQCVNGKYISQMKACDGINDCGDQSDELCCKACQGKGFHCKSGVCIPSQYQCNGEVDCITGEDEVGCAGFASVTQEETEILTADMDAERRRIKSLLPKLSCGVKNRMHIRRKRIVGGKRAQLGDLPWQVAIKDASGITCGGIYIGGCWILTAAHCLRASKTHRYQIWTTVVDWIHPDLKRIVIEYVDRIIFHENYNAGTYQNDIALIEMKKDGNKKDCELPRSIPACVPWSPYLFQPNDTCIVSGWGREKDNERVFSLQWGEVKLISNCSKFYGNRFYEKEMECAGTYDGSIDACKGDSGGPLVCMDANNVTYVWGVVSWGENCGKPEFPGVYTKVANYFDWISYHVGRPFISQYNV
B2: in data set [2], the “amount of CFI needed to cleave 50% of the available C3b (re-analysis, 4-parameter logistic)” value was “The amount of CFI needed to cleave 50% of the available C3b was approximately 632 ng/ml”.

B3: purified CFI: CFI purified from serum (CompTech) (protein)
chain: KVTYTSQEDLVEKKCLAKKYTHLSCDKVFCQPWQRCIEGTCVCKLPYQCPKNGTAVCATNRRSFPTYCQQKSLECLHPGTKFLNNGTCTAEGKFSVSLKHGNTDSEGIVEVKLVDQDKTMFICKSSWSMREANVACLDLGFQQGADTQRRFKLSDLSINSTECLHVHCRGLETSLAECTFTKRRTMGYQDFADVVCYTQKADSPMDDFFQCVNGKYISQMKACDGINDCGDQSDELCCKACQGKGFHCKSGVCIPSQYQCNGEVDCITGEDEVGCAGFASVTQEETEILTADMDAERRRIKSLLPKLSCGVKNRMHIRRKRIVGGKRAQLGDLPWQVAIKDASGITCGGIYIGGCWILTAAHCLRASKTHRYQIWTTVVDWIHPDLKRIVIEYVDRIIFHENYNAGTYQNDIALIEMKKDGNKKDCELPRSIPACVPWSPYLFQPNDTCIVSGWGREKDNERVFSLQWGEVKLISNCSKFYGNRFYEKEMECAGTYDGSIDACKGDSGGPLVCMDANNVTYVWGVVSWGENCGKPEFPGVYTKVANYFDWISYHVGRPFISQYNV
For the molecule B3, in data set [3], the “estimated EC50 of CFI (95% limits in parentheses)” value is 32.6 (9.3-108.8) ng/ml.

B4: CFI: Complement factor I protein purchased from Complement Technology Inc (protein)
chain: KVTYTSQEDLVEKKCLAKKYTHLSCDKVFCQPWQRCIEGTCVCKLPYQCPKNGTAVCATNRRSFPTYCQQKSLECLHPGTKFLNNGTCTAEGKFSVSLKHGNTDSEGIVEVKLVDQDKTMFICKSSWSMREANVACLDLGFQQGADTQRRFKLSDLSINSTECLHVHCRGLETSLAECTFTKRRTMGYQDFADVVCYTQKADSPMDDFFQCVNGKYISQMKACDGINDCGDQSDELCCKACQGKGFHCKSGVCIPSQYQCNGEVDCITGEDEVGCAGFASVTQEETEILTADMDAERRRIKSLLPKLSCGVKNRMHIRRKRIVGGKRAQLGDLPWQVAIKDASGITCGGIYIGGCWILTAAHCLRASKTHRYQIWTTVVDWIHPDLKRIVIEYVDRIIFHENYNAGTYQNDIALIEMKKDGNKKDCELPRSIPACVPWSPYLFQPNDTCIVSGWGREKDNERVFSLQWGEVKLISNCSKFYGNRFYEKEMECAGTYDGSIDACKGDSGGPLVCMDANNVTYVWGVVSWGENCGKPEFPGVYTKVANYFDWISYHVGRPFISQYNV
Turning to B4, the “EC50 of CFI (PBS control, no BAM)” value in data set [4] (CFI 10 ng/mL to 30 μg/mL, absence of BAM1-42) is given as 686 ng/mL. Moreover, the “amount of CFI needed to cleave 50% of the available C3b” value in data set [4] (no BAM, reanalysis with reparametrized 4-parameter logistic equation) is recorded as “approximately 632 ng/ml”.

B5: recombinant CFI: CFI generated by recombinant means (GSK) (protein)
chain: KVTYTSQEDLVEKKCLAKKYTHLSCDKVFCQPWQRCIEGTCVCKLPYQCPKNGTAVCATNRRSFPTYCQQKSLECLHPGTKFLNNGTCTAEGKFSVSLKHGNTDSEGIVEVKLVDQDKTMFICKSSWSMREANVACLDLGFQQGADTQRRFKLSDLSINSTECLHVHCRGLETSLAECTFTKRRTMGYQDFADVVCYTQKADSPMDDFFQCVNGKYISQMKACDGINDCGDQSDELCCKACQGKGFHCKSGVCIPSQYQCNGEVDCITGEDEVGCAGFASVTQEETEILTADMDAERRRIKSLLPKLSCGVKNRMHIRRKRIVGGKRAQLGDLPWQVAIKDASGITCGGIYIGGCWILTAAHCLRASKTHRYQIWTTVVDWIHPDLKRIVIEYVDRIIFHENYNAGTYQNDIALIEMKKDGNKKDCELPRSIPACVPWSPYLFQPNDTCIVSGWGREKDNERVFSLQWGEVKLISNCSKFYGNRFYEKEMECAGTYDGSIDACKGDSGGPLVCMDANNVTYVWGVVSWGENCGKPEFPGVYTKVANYFDWISYHVGRPFISQYNV
On to B5, for which the “EC50 recombinant to purified ratio” value in data set [3] (model fitted to data of three experiments, P<0.001 vs 1) is given as 1.8 (1.5-2.2). Besides, in data set [3] (overall result), the “times lower bioactivity than material purified from serum” value is recorded as “approximately 2 times”. The “estimated EC50 of CFI (95% limits in parentheses)” value in data set [3] was 60.8 (21.6-168.0) ng/ml.
